Measurements reported in US20230140797A1 (published 2023).

Experiments:
[1] = molecular target: T1, biotinylated GPC3 peptide (human, biotin on the C-terminal Lys); experiment: Biacore T200 SPR, peptide on Sensor chip SA
T1 peptide: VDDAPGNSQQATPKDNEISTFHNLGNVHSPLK

[2] = molecular target: human FcγRIa extracellular domain with C-terminal His tag (human, UniProt P12314 16-292); experiment: SPR Biacore, amount bound per captured antibody
[3] = molecular target: T2, human FcγRIIa type R extracellular domain with C-terminal His tag (human, UniProt P12318 34-217); experiment: SPR Biacore, amount bound per captured antibody
T2 sequence (looked up): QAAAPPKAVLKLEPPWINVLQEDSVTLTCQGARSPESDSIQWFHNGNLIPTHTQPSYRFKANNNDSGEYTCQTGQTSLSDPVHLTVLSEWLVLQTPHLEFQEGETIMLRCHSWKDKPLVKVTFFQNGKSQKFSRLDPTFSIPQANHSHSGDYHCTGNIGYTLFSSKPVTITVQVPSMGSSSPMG

[4] = molecular target: T3, human FcγRIIa type H extracellular domain with C-terminal His tag (human, UniProt P12318 34-217); experiment: SPR Biacore, amount bound per captured antibody
T3 sequence (looked up): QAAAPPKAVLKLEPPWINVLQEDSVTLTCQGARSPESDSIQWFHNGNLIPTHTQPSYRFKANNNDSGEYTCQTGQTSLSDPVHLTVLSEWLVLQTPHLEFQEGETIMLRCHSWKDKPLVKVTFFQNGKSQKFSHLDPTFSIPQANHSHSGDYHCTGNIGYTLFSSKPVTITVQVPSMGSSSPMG

[5] = molecular target: T4, human FcγRIIb extracellular domain with C-terminal His tag (human, UniProt P31994 43-217); experiment: SPR Biacore, amount bound per captured antibody
T4 sequence (looked up): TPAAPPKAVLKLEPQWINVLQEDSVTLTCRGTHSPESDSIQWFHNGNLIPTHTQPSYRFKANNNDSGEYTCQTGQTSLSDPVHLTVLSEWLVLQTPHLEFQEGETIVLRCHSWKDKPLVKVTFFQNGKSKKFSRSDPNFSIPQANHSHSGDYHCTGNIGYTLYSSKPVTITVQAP

[6] = molecular target: human FcγRIIIa type V extracellular domain with C-terminal His tag (human, UniProt P08637 17-208); experiment: SPR Biacore, amount bound per captured antibody
Chain of human FcγRIIIa type V extracellular domain with C-terminal His tag (P08637 17-208 F176V): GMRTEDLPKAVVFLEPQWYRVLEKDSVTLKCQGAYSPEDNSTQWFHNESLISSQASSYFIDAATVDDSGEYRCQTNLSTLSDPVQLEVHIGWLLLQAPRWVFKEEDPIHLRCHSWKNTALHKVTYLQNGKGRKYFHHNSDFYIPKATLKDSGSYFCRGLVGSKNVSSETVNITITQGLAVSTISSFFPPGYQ

Chain of human FcγRIa extracellular domain with C-terminal His tag (P12314 16-292): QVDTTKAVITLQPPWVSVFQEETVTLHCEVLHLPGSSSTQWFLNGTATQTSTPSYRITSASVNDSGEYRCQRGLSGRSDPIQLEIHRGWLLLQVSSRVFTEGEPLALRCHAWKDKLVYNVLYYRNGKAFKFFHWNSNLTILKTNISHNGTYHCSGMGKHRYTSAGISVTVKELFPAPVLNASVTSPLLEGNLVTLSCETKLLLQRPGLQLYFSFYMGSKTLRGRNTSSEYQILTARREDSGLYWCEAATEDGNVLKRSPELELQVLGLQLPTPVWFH

B1: human IgE (hIgE) (antibody)
heavy: QVQLVQSGAEVKKPGASVKVSCKASGYTFTDYEMHWVRQAPGQGLEWMGALDPKTGDTAYSQKFKGRVTLTADKSTSTAYMELSSLTSEDTAVYYCTRFYSYTYWGQGTLVTVSSASTQSPSVFPLTRCCKNIPSNATSVTLGCLATGYFPEPVMVTWDTGSLNGTTMTLPATTLTLSGHYATISLLTVSGAWAKQMFTCRVAHTPSSTDWVDNKTFSVCSRDFTPPTVKILQSSCDGGGHFPPTIQLLCLVSGYTPGTINITWLEDGQVMDVDLSTASTTQEGELASTQSELTLSQKHWLSDRTYTCQVTYQGHTFEDSTKKCADSNPRGVSAYLSRPSPFDLFIRKSPTITCLVVDLAPSKGTVNLTWSRASGKPVNHSTRKEEKQRNGTLTVTSTLPVGTRDWIEGETYQCRVTHPHLPRALMRSTTKTSGPRAAPEVYAFATPEWPGSRDKRTLACLIQNFMPEDISVQWLHNEVQLPDARHSTTQPRKTKGSGFFVFSRLEVTRAEWEQKDEFICRAVHEAASPSQTVQRAVSVNPGK
light: DVVMTQSPLSLPVTPGEPASISCRSSQSLVHSNRNTYLHWYLQKPGQSPQLLIYKVSNRFSGVPDRFSGSGSGTDFTLKISRVEAEDVGVYYCSQNTHVPPTFGQGTKLEIKRTVAAPSVFIFPPSDEQLKSGTASVVCLLNNFYPREAKVQWKVDNALQSGNSQESVTEQDSKDSTYSLSSTLTLSKADYEKHKVYACEVTHQGLSSPVTKSFNRGEC
B1: binds [1].

B2: IL6R-BP199/IL6R-L (antibody, human IgG1, kappa)
heavy: QVQLQESGPGLVKPSETLSLTCAVSGHSISHDHAWSWVRQPPGEGLEWIGFISYSGITNYNPSLQGRVTISRDNSKNTLYLQMNSLRAEDTAVYYCARSLARTTAMDYWGEGTLVTVSSASTKGPSVFPLAPSSKSTSGGTAALGCLVKDYFPEPVTVSWNSGALTSGVHTFPAVLQSSGLYSLSSVVTVPSSSLGTQTYICNVNHKPSNTKVDKKVEPKSCDKTHTCPPCPAPDLLGGDSVFLFPPKPKDTLMISRTPEVTCVVVDVSHEDPEVKFNWYVDGVEVHNAKTKPREEQYNSTYRVVSVLTVLHQDWLNGKEYKCKVSNAALPRPIEKTISKAKGQPREPQVYTLPPSRDELTKNQVSLTCLVKGFYPSDIAVEWESNGQPENNYKTTPPVLDSDGSFFLYSKLTVDKSRWQQGNVFSCSVMHEALHNHYTQESLSLSP
light: not shown
B2 was tested, and the relative binding activity [2] was 112 % of IL6R-BF648/IL6R-L, the relative binding activity [3] was 172 % of IL6R-BF648/IL6R-L and the relative binding activity [4] was 116 % of IL6R-BF648/IL6R-L. For the same binder, the relative binding activity [5] was 144 % of IL6R-BF648/IL6R-L and the relative binding activity [6] was 103 % of IL6R-BF648/IL6R-L.
